Data: patent US11034757B2, “Combination therapies using agents that target tumor-associated stroma or tumor cells and tumor vasculature” (BIOMED VALLEY DISCOVERIES, INC., priority 2014, dated 2021)

How the values were obtained:
UACC melanoma cells = experiment: TEM8 antibody efficacy in UACC melanoma model; assay type: in vivo, mouse; conditions: 15 mg/kg, 3 times per week for 3-4 weeks; start at 50 mm^3
Description: UACC melanoma cells were cultured and injected subcutaneously into mice. Treatment was initiated with a tumor volume of 50 mm^3, and treatment groups consisted of one of four TEM8 antibodies (M825, M830, M863, and M822), each dosed at 15 mg/kg, 3 times per week for 3-4 weeks.

[1] = system: H460 non-small cell lung carcinoma xenograft; experiment: M830 in the H460 non-small cell lung carcinoma xenograft model; assay type: in vivo, mouse; conditions: combination partner Paclitaxel
Description: Tumor cells were cultured in RPMI-1640 medium supplemented with 10% fetal bovine serum, 2 mM glutamine, 100 units/mL penicillin G sodium, 100 μg/mL streptomycin sulfate, and 25 μg/mL gentamicin. The tumor cells were grown in tissue culture flasks in a humidified incubator at 37° C., in an atmosphere of 5% CO2 and 95% air.
Criteria for Regression Responses
Animals were monitored for regression responses.
The statistical tests were not adjusted for multiple comparisons.
Cultured H460 cells were harvested during exponential growth and resuspended in phosphate buffered saline at a concentration of 1×10^8 cells/mL. 1.0×10^7 tumor cells were injected subcutaneously into the flank of athymic nude mice. Animals were euthanized when tumors reached the pre-determined volume endpoint of 2000 mm^3 or on the final day (Day 88), whichever came first. […] Each treatment produced a significant survival difference versus controls (P<0.01). The median TTE for controls was 22.8 days, establishing a maximum possible TGD of 65.2 days (286%) for the 88-day study.

[2] = system: MC38 colon carcinoma liver metastasis; experiment: M830 in MC38 colon carcinoma liver metastasis model; assay type: in vivo, C57BL/6 mice
Text: C57BL/6 mice were challenged with MC38 colon carcinoma liver metastasis by intrasplenic injections of cultured cells.

B1: M830: anti-TEM8 monoclonal antibody (hIgG1); VH SEQ ID NO:5, VL SEQ ID NO:6 (antibody, V domains shown)
VH: EVQLVESGGGVVQPGRSVRLSCAASGFTFSTYTMHWVRQAPGKGLEWVAIISNDGSNKYYADPVRGRFTISRDNSKNTLYLQMNSLRAEDTAVYYCVRGSSWYRGNWFDPWGQGTLVTVSS
VL: DIQMTQSPSSLSASVGDRVTIACRASQTISRYLNWYQQKPGKAPKLLIYAASSLQSGVSSRFSGSGSGTEFTLTISSLQPEDFATYFCQQTYSPPITFGQGTRLEIKR
modifications: TEM830 mAb VH; TEM830 mAb VL
For B1, the “effect on tumor growth in the UACC melanoma model” value (UACC melanoma cells) was “effective at slowing tumor growth”, the “regression (at Day 21, vs. vehicle column)” value [1] was “(−61%” and the effect on survival ([2]; P=0.0001) was “significantly improved the survival”. It also gave a median survival ([2]; vehicle 11 days) of 17 days.
